B1: target 1 C4A,C7A (mixed)
RNA 1: CACCCGUGCAAAAAUGCAGGGGUCUAAAACUGAGCGGAUAACCUCUCUAUGG
RNA 2: GGGAAUGGAUCCACAUCUACGAAUUCGUACCAUAGAGAGGUUAUACGAUCACCGAGAUCGGAAGAGCACACGU
B2: target 1 MT 5'PFS CAG 3'PFS UGA (mixed)
RNA 1: B1 RNA 1
RNA 2: B1 RNA 2 with G27C, U28A, A29G, A45C, A48C, C52U, C53G, G54A
B3: target 1 MT 5'PFS UCC 3'PFS UUG (mixed)
RNA 1: B1 RNA 1
RNA 2: B1 RNA 2 with G27U, U28C, A29C, A45C, A48C, C52U, C53U
B4: target 1 MT 5'PFS CCC 3'PFS UAA (mixed)
RNA 1: B1 RNA 1
RNA 2: B1 RNA 2 with G27C, U28C, A29C, A45C, A48C, C52U, C53A, G54A
B5: target 1 G13C,G15U (mixed)
RNA 1: B1 RNA 1
RNA 2: B1 RNA 2 with G37U, G39C, A45C, A48C
B6: target 1 MT 5'PFS UGG 3'PFS UCG (mixed)
RNA 1: B1 RNA 1
RNA 2: B1 RNA 2 with G27U, U28G, A29G, A45C, A48C, C52U
B7: target 1 MT 5'PFS GCC 3'PFS UGU (mixed)
RNA 1: B1 RNA 1
RNA 2: B1 RNA 2 with U28C, A29C, A45C, A48C, C52U, C53G, G54U
B8: target 1 MT 5'PFS GAA 3'PFS AAU (mixed)
RNA 1: B1 RNA 1
RNA 2: B1 RNA 2 with U28A, A45C, A48C, C52A, C53A, G54U
B9: target 1 MT 5'PFS UAC 3'PFS UCU (mixed)
RNA 1: B1 RNA 1
RNA 2: B1 RNA 2 with G27U, U28A, A29C, A45C, A48C, C52U, G54U
B10: target 1 MT 5'PFS UCC 3'PFS UUU (mixed)
RNA 1: B1 RNA 1
RNA 2: B1 RNA 2 with G27U, U28C, A29C, A45C, A48C, C52U, C53U, G54U
B11: target 1 MT 5'PFS AGG 3'PFS UAU (mixed)
RNA 1: B1 RNA 1
RNA 2: B1 RNA 2 with G27A, U28G, A29G, A45C, A48C, C52U, C53A, G54U
B12: target 1 MT 5'PFS UCG 3'PFS UGA (mixed)
RNA 1: B1 RNA 1
RNA 2: B1 RNA 2 with G27U, U28C, A29G, A45C, A48C, C52U, C53G, G54A
B13: target 1 MT 5'PFS UAA 3'PFS CAA (mixed)
RNA 1: B1 RNA 1
RNA 2: B1 RNA 2 with G27U, U28A, A45C, A48C, C53A, G54A
B14: target 1 MT 5'PFS AGG 3'PFS UAG (mixed)
RNA 1: B1 RNA 1
RNA 2: B1 RNA 2 with G27A, U28G, A29G, A45C, A48C, C52U, C53A
B15: target 1 MT 5'PFS CUG 3'PFS AUU (mixed)
RNA 1: B1 RNA 1
RNA 2: B1 RNA 2 with G27C, A29G, A45C, A48C, C52A, C53U, G54U
B16: target 1 MT 5'PFS CUG 3'PFS AUG (mixed)
RNA 1: B1 RNA 1
RNA 2: B1 RNA 2 with G27C, A29G, A45C, A48C, C52A, C53U
B17: target 1 MT 5'PFS GCC 3'PFS CGC (mixed)
RNA 1: B1 RNA 1
RNA 2: B1 RNA 2 with U28C, A29C, A45C, A48C, C53G, G54C
B18: target 1 MT 5'PFS GCC 3'PFS CGG (mixed)
RNA 1: B1 RNA 1
RNA 2: B1 RNA 2 with U28C, A29C, A45C, A48C, C53G
B19: target 1 MT 5'PFS UAC 3'PFS AUG (mixed)
RNA 1: B1 RNA 1
RNA 2: B1 RNA 2 with G27U, U28A, A29C, A45C, A48C, C52A, C53U
B20: target 1 MT 5'PFS AAU 3'PFS AAC (mixed)
RNA 1: B1 RNA 1
RNA 2: B1 RNA 2 with G27A, U28A, A29U, A45C, A48C, C52A, C53A, G54C
B21: target 1 MT 5'PFS AGG 3'PFS UAC (mixed)
RNA 1: B1 RNA 1
RNA 2: B1 RNA 2 with G27A, U28G, A29G, A45C, A48C, C52U, C53A, G54C
B22: target 1 MT 5'PFS UAA 3'PFS CAG (mixed)
RNA 1: B1 RNA 1
RNA 2: B1 RNA 2 with G27U, U28A, A45C, A48C, C53A
B23: target 1 insG 3' of 14,insG 3' of 8 (mixed)
RNA 1: B1 RNA 1
RNA 2: GGGAAUGGAUCCACAUCUACGAAUUCGUACCAUAGAGAGGGUUAUGCCGCUCACCGAGAUCGGAAGAGCACACGU
B24: target 1 MT 5'PFS GCU 3'PFS CAA (mixed)
RNA 1: B1 RNA 1
RNA 2: B1 RNA 2 with U28C, A29U, A45C, A48C, C53A, G54A
B25: target 1 U3G,G15A (mixed)
RNA 1: B1 RNA 1
RNA 2: B1 RNA 2 with G37A, A45C, A48C, U49G
B26: target 1 MT 5'PFS AAG 3'PFS UAC (mixed)
RNA 1: B1 RNA 1
RNA 2: B1 RNA 2 with G27A, U28A, A29G, A45C, A48C, C52U, C53A, G54C
B27: target 1 MT 5'PFS AGG 3'PFS UCC (mixed)
RNA 1: B1 RNA 1
RNA 2: B1 RNA 2 with G27A, U28G, A29G, A45C, A48C, C52U, G54C
B28: target 1 MT 5'PFS CUG 3'PFS AUA (mixed)
RNA 1: B1 RNA 1
RNA 2: B1 RNA 2 with G27C, A29G, A45C, A48C, C52A, C53U, G54A
B29: target 1 MT 5'PFS GCU 3'PFS CAU (mixed)
RNA 1: B1 RNA 1
RNA 2: B1 RNA 2 with U28C, A29U, A45C, A48C, C53A, G54U
B30: target 1 MT 5'PFS UGG 3'PFS UCA (mixed)
RNA 1: B1 RNA 1
RNA 2: B1 RNA 2 with G27U, U28G, A29G, A45C, A48C, C52U, G54A
B31: target 1 MT 5'PFS GCC 3'PFS CGU (mixed)
RNA 1: B1 RNA 1
RNA 2: B1 RNA 2 with U28C, A29C, A45C, A48C, C53G, G54U
B32: target 1 MT 5'PFS UAA 3'PFS AGA (mixed)
RNA 1: B1 RNA 1
RNA 2: B1 RNA 2 with G27U, U28A, A45C, A48C, C52A, C53G, G54A
B33: target 1 MT 5'PFS GCC 3'PFS CGA (mixed)
RNA 1: B1 RNA 1
RNA 2: B1 RNA 2 with U28C, A29C, A45C, A48C, C53G, G54A
B34: target 1 MT 5'PFS ACU 3'PFS AUC (mixed)
RNA 1: B1 RNA 1
RNA 2: B1 RNA 2 with G27A, U28C, A29U, A45C, A48C, C52A, C53U, G54C
B35: target 1 MT 5'PFS UAA 3'PFS AGG (mixed)
RNA 1: B1 RNA 1
RNA 2: B1 RNA 2 with G27U, U28A, A45C, A48C, C52A, C53G
B36: target 1 MT 5'PFS UAC 3'PFS AUU (mixed)
RNA 1: B1 RNA 1
RNA 2: B1 RNA 2 with G27U, U28A, A29C, A45C, A48C, C52A, C53U, G54U
B37: target 1 MT 5'PFS ACG 3'PFS UAA (mixed)
RNA 1: B1 RNA 1
RNA 2: B1 RNA 2 with G27A, U28C, A29G, A45C, A48C, C52U, C53A, G54A
B38: target 1 MT 5'PFS ACU 3'PFS AUA (mixed)
RNA 1: B1 RNA 1
RNA 2: B1 RNA 2 with G27A, U28C, A29U, A45C, A48C, C52A, C53U, G54A

Numbering of substitutions follows the chain as printed. In names and notes the source's numbering stands.

This data set has as its target T1, EsCas13d, nuclease-dead (Eubacterium siraeum, UniProt B0MS50, R295A;H300A;R849A;H854A).
T1 sequence: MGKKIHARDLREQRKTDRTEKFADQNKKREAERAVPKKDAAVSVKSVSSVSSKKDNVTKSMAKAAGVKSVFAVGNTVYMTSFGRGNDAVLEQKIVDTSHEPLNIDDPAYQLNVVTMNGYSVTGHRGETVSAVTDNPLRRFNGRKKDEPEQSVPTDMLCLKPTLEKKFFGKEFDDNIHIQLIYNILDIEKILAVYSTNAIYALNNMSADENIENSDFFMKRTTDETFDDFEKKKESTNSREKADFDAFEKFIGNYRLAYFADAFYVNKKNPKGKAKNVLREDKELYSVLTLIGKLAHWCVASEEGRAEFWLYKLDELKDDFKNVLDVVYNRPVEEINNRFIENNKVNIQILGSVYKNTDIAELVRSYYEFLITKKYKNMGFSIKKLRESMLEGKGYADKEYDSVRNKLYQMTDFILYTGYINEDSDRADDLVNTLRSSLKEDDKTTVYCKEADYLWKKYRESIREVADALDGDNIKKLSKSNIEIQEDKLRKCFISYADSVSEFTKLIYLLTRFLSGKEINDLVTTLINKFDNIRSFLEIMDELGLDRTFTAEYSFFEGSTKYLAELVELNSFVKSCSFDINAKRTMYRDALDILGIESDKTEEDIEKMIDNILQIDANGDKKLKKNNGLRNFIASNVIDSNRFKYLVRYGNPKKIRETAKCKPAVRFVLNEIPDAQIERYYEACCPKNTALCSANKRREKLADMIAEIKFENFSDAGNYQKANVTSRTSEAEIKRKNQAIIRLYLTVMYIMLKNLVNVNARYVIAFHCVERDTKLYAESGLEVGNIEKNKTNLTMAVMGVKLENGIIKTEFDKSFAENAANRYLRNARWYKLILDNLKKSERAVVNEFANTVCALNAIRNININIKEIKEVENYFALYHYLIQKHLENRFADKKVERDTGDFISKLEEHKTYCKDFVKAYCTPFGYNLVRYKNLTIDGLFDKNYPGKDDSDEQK
Kind of data set: crRNA (strand 1, pre-loaded); Mg2+; 40 mM Tris-HCl pH 7.5, 150 mM NaCl, 6 mM MgCl2, 1 mM DTT, 0.1% Tween-20, 0.2 mg/ml BSA; 25 C; 10 min per concentration, then washed. The settings on record: tags: His6-TwinStrep-SUMO cleaved; N-terminal SNAP kept (SNAP-Surface 488); label: 3' end held by stalled T7 RNA polymerase.
In the case of B1, the dissociation constant Kd (as a rule, a measure of binding affinity in units of concentration) is 0.0066 ± 0.0004 µM.

With B2, the Kd is ~0.06 µM.

In the case of B3, the Kd was 0.0133 ± 0.00245 µM.

As for B4, the Kd is ~0.011 µM.

Molecule B5 registered an equilibrium dissociation constant (Kd) of 0.066 ± 0.018 µM.

Regarding B6, the affinity, expressed as Kd, was 0.0715 ± 0.0225 µM.

For B7, the affinity, expressed as Kd, was 0.02 ± 0.005 µM.

On to B8, for which the dissociation constant Kd amounted to 0.0405 ± 0.013 µM.

With B9, the dissociation constant Kd is 0.0099 ± 0.0032 µM.

Molecule B10 yielded a Kd of 0.011 ± 0.004 µM.

B11 came in with a Kd of 0.035 ± 0.0165 µM.

B12: the Kd was 0.033 ± 0.0095 µM.

In the case of B13, the equilibrium dissociation constant (Kd) is ~0.0525 µM.

B14 displayed a Kd of 0.023 ± 0.0065 µM.

Regarding B15, the dissociation constant Kd is 0.00605 ± 0.0016 µM.

In turn, B16 showed a Kd of 0.0335 ± 0.008 µM.

B17 displayed a dissociation constant (Kd) of 0.0155 ± 0.006 µM.

Molecule B18 returned a Kd of 0.0261 ± 0.0091 µM.

With B19, binding was put at a Kd of 0.043 ± 0.0205 µM.

Molecule B20 gave a dissociation constant Kd of 0.0475 ± 0.0185 µM.

On to B21, for which binding was characterised by a dissociation constant (Kd) of 0.032 ± 0.013 µM.

Consider B22, for which binding was characterised by a dissociation constant (Kd) of 0.053 ± 0.022 µM.

B23: binding was characterised by a dissociation constant (Kd) of 0.0097 ± 0.0007 µM.

For B24, the Kd is ~0.06 µM.

With B25, the affinity, expressed as Kd, was 0.0175 ± 0.001 µM.

In turn, B26 showed a dissociation constant Kd of 0.024 ± 0.007 µM.

On to B27, for which binding was put at a Kd of 0.049 ± 0.019 µM.

The molecule B28 showed a Kd of 0.00505 ± 0.0014 µM.

For B29, the dissociation constant (Kd) was 0.051 ± 0.015 µM.

B30 displayed an equilibrium dissociation constant (Kd) of 0.07 ± 0.029 µM.

As for B31, the Kd turned out to be 0.0101 ± 0.00165 µM.

As to B32, the Kd worked out at 0.037 ± 0.0065 µM.

B33 showed a dissociation constant Kd of 0.0185 ± 0.0075 µM.

With B34, the Kd was ~0.05 µM.

As to B35, the Kd was ~0.075 µM.

B36 registered a dissociation constant Kd of 0.0265 ± 0.008 µM.

B37 registered a Kd of 0.0135 ± 0.005 µM.

Take B38: binding was characterised by a dissociation constant (Kd) of 0.067 ± 0.018 µM.
